Data on seven molecules can be found in publication PMC7138525 (Cell reports, 2020).

Assay [1] deals with T1, HCB, recombinant BoNT preparation coated for ELISA (Clostridium botulinum, BoNT/B subtype B1).
T1 chain: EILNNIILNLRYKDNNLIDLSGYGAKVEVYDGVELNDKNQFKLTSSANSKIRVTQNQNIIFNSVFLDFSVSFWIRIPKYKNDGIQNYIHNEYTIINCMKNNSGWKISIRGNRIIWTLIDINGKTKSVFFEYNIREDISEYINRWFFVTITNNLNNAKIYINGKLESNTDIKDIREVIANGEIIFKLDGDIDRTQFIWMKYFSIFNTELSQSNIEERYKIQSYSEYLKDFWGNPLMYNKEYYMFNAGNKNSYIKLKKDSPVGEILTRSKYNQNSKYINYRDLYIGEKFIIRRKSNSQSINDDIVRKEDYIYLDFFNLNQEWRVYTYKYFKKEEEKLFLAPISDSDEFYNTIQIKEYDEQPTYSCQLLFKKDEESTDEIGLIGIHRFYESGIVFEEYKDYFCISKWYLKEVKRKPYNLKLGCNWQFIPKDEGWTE
The assay is described as follows: ELISA. On the technique in general: In an ELISA, binding on a coated surface is turned into a signal by an enzyme label.

The target in assay [2] is T2, HCB, receptor-binding domain of BoNT/B1 (E859–E1291) (UniProt P10844). The assay is described as follows: SEC. (In gel filtration, larger molecules generally elute earlier.)
The target in assay [3] is T2, HCB, receptor-binding domain of BoNT/B1 …. Nature of the assay: crystal structure.

B1: VHH JLO-G11, His6-tagged thioredoxin fusion with carboxy-terminal E-tag (VHH)
VHH: QVQLAESGGGLVQPGGSLRLSCEASGFHLEHFAVGWFRQAPGKEREGVSCISASGDSTTYADSVKGRSTISKDNAKNAVYLQMDSLRPEDTGDYYCAASHFSVCGKNIRKIEYRYWGQGTPVTVSS
As for B1, the binding result in assay [1] was “binds”.

B2: VHH JLK-G12 (from GST fusion) (VHH)
VHH: QVQLVESGGGLVQAGGSLRLSCAASEFRAEHFAVGWFRQAPGKEREGVSCVDASGDSTAYADSVKGRFTISRDNNKNVVYLQMDSLEPEDTGDYYCGASYFTVCAKSMRKIEYRYWGQGTQVTVSS
Turning to B2, the binding result in assay [2] is listed as “binds”.

B3: VHH JLK-G12, His6-tagged thioredoxin fusion with carboxy-terminal E-tag (VHH)
VHH: B2 VHH
As for B3, the binding result in assay [1] is reported as “binds”.

B4: VHH JLI-G10 (VHH)
VHH: QVQLVESGGGLVQAGGSLRLSCAASILTYDLDYYYIGWVRQAPGKEREGVSCISSTDGATYYADSVKGRFTISRNNAKNTVYLQMNNLKPEDTAIYYCAAAPLAGRYCPASHEYGYWGQGTQVTVSS
For the molecule B4, the binding result in assay [3] is recorded as “binds”.

B5: VHH JLI-G10, His6-tagged thioredoxin fusion with carboxy-terminal E-tag (VHH)
VHH: B4 VHH
For B5, the binding result in assay [1] is recorded as “binds”.

B6: VHH JLI-H11 (from GST fusion) (VHH)
VHH: QVQLVESGGGLVQPGESLRLSCGASGMSLDYYAIAWYRQAPGKEREGVSCISVSGSSAQYLDSVRGRFIISKDNTKSTAYLQMNSLKPEDTAVYYCAALADCAGYASLTFDFDSWGQGTQVAVSS
As for B6, the binding result in assay [2] is given as “binds”.

B7: VHH JLI-H11, His6-tagged thioredoxin fusion with carboxy-terminal E-tag (VHH)
VHH: B6 VHH
Regarding B7, the binding result in assay [1] is reported as “binds”.
